Here are results for nine molecules from US20220298212A1 (Molecular Partners, published 2022).

The chains are these.
B1: DARPin® protein #51 (designed binder)
chain: GSDLGQKLLKAAQEGQDDEVRELLKAGADVNAKDLRGITPLHVAAWQGHLEIVEVLLKAGADVNAKDSKGETPLHLAAFRGHLEIVEVLLKAGADVNAQDQQGETPADLAALAGHVDIAEVLQKLNGSPTPTPTTPTPTPTTPTPTPTGSDLGQKLLKAAQEGQDDEVRELLKAGADVNAKDLRGITPLHVAAWQGHLEIVEVLLKAGADVNAKDSKGETPLHLAAFRGHLEIVEVLLKAGADVNAQDQQGETPADLAALAGHVDIAEVLQKLN
notes: not shown: TAA-specific ankyrin repeat domain (localizer)
B2: DARPin® protein #22 (designed binder)
chain: MRGSHHHHHHGSDLGEKLLWAAWEGQGDEVRILLAAGADVNAKDLTGRTPLHFAAHSGHLEIVEVLLKAGADVNAKDNAGRTPLHLAAELGHLEIVEVLLKAGADVNAQDKSGKTPADLAADAGHEDIAEVLQKAA
B3: DARPin® protein #23 (designed binder)
chain: MRGSHHHHHHGSDLGEKLLWAAYLGQDDEVRILLAAGADVNAKDATGRTPLHFAAHSGHLEIVEVLLKAGADVNAKDNAGRTPLHLAAELGHLEIVEVLLKAGADVNAQDKSGKTPADLAADAGHEDIAEVLQKAA
B4: DARPin® protein #26 (designed binder)
chain: MRGSHHHHHHGSDLGKKLLEAARAGQDDEVRELLKAGADVNAKDHAGQTPLHIAALRGHLEIVEVLLKAGADVNAKDKYGQTPLHLAAILGHLEIVEVLLKAGADVNAKDQEGDTPLHIAAWQGHLEIVEVLLKAGADVNAQDKSGKTPADLAADAGHEDITEVLQKLN
B5: DARPin® protein #27 (designed binder)
chain: MRGSHHHHHHGSDLGKKLLEAARAGQDDEVRELLKAGADVNAKDHQGATPLHNAAWAGHLEIVEVLLKAGADVNAKDKAGYTPLHIAAITGHLEIVEVLLKAGADVNAKDQWGKTPLHLAAQVGHLEIVEVLLKAGADVNAQDKSGKTPADLAADAGHEDIAKVLQKLN
B6: DARPin® protein #20 (designed binder)
chain: MRGSHHHHHHGSDLGEKLLHAAYYGQDDEVRILLAAGADVNAKDDQGLTPLHLAAAIGHLEIVEVLLKAGADVNAKDAYGETPLHLAARRGHLEIVEVLLKAGADVNAQDKSGKTPADLAADAGHEDIAEVLQKAA
B7: DARPin® protein #24 (designed binder)
chain: MRGSHHHHHHGSDLGEKLLNAAYYGQDDEVRILLAAGADVNAKDVKGETPLHYAAAVGHLEIVEVLLKAGADVNAKDQYGATPLHLAAYKGHLEIVEVLLKAGADVNAQDKSGKTPADLAADAGHEDIAEVLQKAA
B8: DARPin® protein #52 (designed binder)
chain: GSDLGDKLLHAAYYGQDDEVRILLAAGADVNAKDTQGLTPLHLAAAIGHLEIVEVLLKAGADVNAKDAYGETPLHLVASRGHLEIVEVLLKAGADVNAQDYSGRTPADLAAEYGHEDIAEVLQKLNGSPTPTPTTPTPTPTTPTPTPTGSDLGDKLLHAAYYGQDDEVRILLAAGADVNAKDTQGLTPLHLAAAIGHLEIVEVLLKAGADVNAKDAYGETPLHLVASRGHLEIVEVLLKAGADVNAQDYSGRTPADLAAEYGHEDIAEVLQKLN
notes: as for B1
B9: DARPin® protein #55 (designed binder)
chain: GSDLGDKLLHAAYYGQDDEVRILLAAGADVNAKDTQGLTPLHLAAAIGHLEIVEVLLKAGADVNAKDAYGETPLHLVASRGHLEIVEVLLKAGADVNAQDYSGRTPADLAAEYGHEDIAEVLQKLNGSPTPTPTTPTPTPTTPTPTPTGSDLGDKLLHAAYYGQDDEVRILLAAGADVNAKDTQGLTPLHLAAAIGHLEIVEVLLKAGADVNAKDAYGETPLHLVASRGHLEIVEVLLKAGADVNAQDYSGRTPADLAAEYGHEDIAEVLQKLNGSPTPTPTTPTPTPTTPTPTPTGSDLGDKLLHAAYYGQDDEVRILLAAGADVNAKDTQGLTPLHLAAAIGHLEIVEVLLKAGADVNAKDAYGETPLHLVASRGHLEIVEVLLKAGADVNAQDYSGRTPADLAAEYGHEDIAEVLQKLN
notes: as for B1

T2 sequence (Q07011 24-255 limits assumed): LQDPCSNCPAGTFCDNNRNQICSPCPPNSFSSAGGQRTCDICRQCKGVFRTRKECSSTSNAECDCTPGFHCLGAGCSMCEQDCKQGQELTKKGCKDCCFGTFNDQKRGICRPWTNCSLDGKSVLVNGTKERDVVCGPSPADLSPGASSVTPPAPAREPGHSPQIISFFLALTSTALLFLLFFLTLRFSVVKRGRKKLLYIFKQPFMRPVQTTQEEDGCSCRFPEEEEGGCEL

For one assay, the target named is T1, biotinylated human 4-1BB (recombinant Fc fusion protein of the extracellular domain of human 4-1BB) (human, UniProt Q07011 24-186, biotinylated (site not stated)).
T1 construct: Bought from BPS Bioscience; tie to the Fc fusion is by the Materials paragraph; also called h4-1BB; CD137; not shown: Fc part of the purchased fusion (BPS Bioscience)
As to the kind of experiment: SPR; accurate fit not possible due to slow off-rate. (Surface plasmon resonance follows binding to a sensor surface in real time, without labels.)
The Kd is the equilibrium constant for the complex coming apart. With B1, the dissociation constant (Kd) was below 0.02 nM.

The target of the next assay is T1, biotinylated human 4-1BB (recombinant …). Kind of assay: SPR (ProteOn), biotinylated human 4-1BB on NLC chip, PBST. Here is the method:
Briefly, biotinylated human 4-1 BB was diluted in PBST (PBS, pH 7.4 containing 0.005% Tween 20®) and coated on a NLC chip (BioRad) to a level of around 320 resonance units (RU) (600 RU for single trace SPR measurements). The interaction of ankyrin repeat protein and h4-1 BB was then measured by injecting 200 μl running buffer (PBS, pH 7.4 containing 0.005% Tween 20®) containing serial dilutions of ankyrin repeat proteins covering a concentration range between 50 nM and 0.5 nM for multi-trace SPR measurements or 50 nM for single trace measurements (on-rate measurement), followed by a running buffer flow for at least 30 minutes at a constant flow rate of 100 μl/min (off-rate measurement). The regeneration was performed using 30 μl of 10 mM Glycine pH 2 followed by 30 μl of 124 mM H₃PO₄. The signals (i.e. resonance unit (RU) values) of the interspots and a reference injection (i.e. injection of running buffer only) were subtracted from the RU traces obtained after injection of ankyrin repeat protein (double-referencing). Based on the SPR traces obtained from the on-rate and off-rate measurements, the on- and off-rate of the corresponding ankyrin repeat protein—4-1 BB interaction was determined.
Dissociation constants (KD) were calculated from the estimated on- and off-rates using standard procedures known to the person skilled in the art.
For the molecule B2, the equilibrium dissociation constant (Kd) was 0.13 nM. Take B3: the equilibrium dissociation constant (Kd) was 0.6 nM. Consider B4, for which the Kd stood at 0.83 nM. The same measure, in the same setting: with B5 the figure was 3.96 nM. Turning to B6, the Kd was determined as 0.48 nM. On to B7, for which the dissociation constant (Kd) worked out at 0.29 nM.

The next assay concerns the target T2, cell membrane-bound human 4-1BB (endogenous, on ionomycin/PMA stimulated CCRF-CEM cells or primary CD8+ T … (human, UniProt Q07011 24-255)).
T2 construct: also called cell membrane-expressed human 4-1 BB; 4-1BB on CEM cells
Kind of assay: flow cytometry on PMA/ionomycin stimulated CEM cells, anti-penta-His Alexa Fluor-488 detection. On the procedure:
Assay setup: Ankyrin repeat protein binding to cell membrane-bound human 4-1 BB on cells was measured by flow cytometry using the T lymphoblast cell line CCRF-CEM (ATCC® CCL-119™) stimulated with ionomcycin/PMA (phorbol 12-myristate 13-acetate) to express 4-1 BB. CEM cells cultured in RPMI medium supplemented with 10% (v/v) FBS+1% PenStrep were harvested and stimulated overnight in 96-well U-bottom plates using the same medium plus PMA (10 ng/ml) and ionomycin (500 ng/ml). […] Stimulated CEM cells were harvested, then 30,000 cells were incubated with increasing concentrations of His-tagged ankyrin repeat proteins in FACS buffer (PBS+2% (v/v) FBS+0.1% sodium azide) for 30 minutes on ice. […] After washing with PBS, cells were stained with Live/Dead Aqua dye (Thermo Fisher, No. L34957) and analyzed using a BD FACS Canto II or AttuneNxT cytometer.
The multivalent ankyrin repeat proteins were tested, together with binding proteins comprising only one corresponding 4-1 BB-specific ankyrin repeat domain (with our without a linked localizer), for binding to PMA/ionomycin stimulated CEM cells.
The EC50 (read off the curve) is the concentration giving half of the maximal effect. For B8, the “EC50 (read off the curve)” value is around 8 nM. Turning to B9, the half-maximal effective concentration (EC50 (read off the curve)) is around 7 nM.
